Measurements from patent publication US20260053920A1 (published 2026).

T1: BST2 peptide on HLA-A*02:01 (human)
T1 peptide: LLLGIGILVL

T2: IMP2 peptide on HLA-A*02:01 (human)
T2 peptide: NLSALGIFST

B1: MEL11 (TCR)
alpha TRAV12-2*01 TRAJ30 CDR3: CAVNYEDDKIIF
beta TRBV9 TRBJ2-7 CDR3: CASSVGVQGSWEQYF
B2: CLL9 (TCR)
alpha TRAV12-2*01 TRAJ9 CDR3: CAVGAGGFKTIF
beta TRBV2*02 TRBJ2-7 CDR3: CASSESPLSGNEQYF
B3: MEL25 (TCR)
alpha TRAV8-6 TRAJ47 CDR3: CAVSDNGNKLVF
beta TRBV12-4 TRBJ2-7 CDR3: CASSWAGPVEQYF
B4: MEL8 (TCR, V domains shown)
Valpha: QKEVEQNSGPLSVPEGAIASLNCTYSDRGSQSFFWYRQYSGKSPELIMSIYSNGDKEDGRFTAQLNKASQYVSLLIRDSQPSDSATYLCAVQKLVFGTGTRLLVSP
Vbeta: NAGVTQTPKFQVLKTGQSMTLQCAQDMNHEYMSWYRQDPGMGLRLIHYSVGAGITDQGEVPNGYNVSRSTTEDFPLRLLSAAPSQTSVYFCASSYSFTEATYEQYFGPGTRLTVT
B5: MEL58 (TCR)
alpha TRAV23DV6 TRAJ54 CDR3: CAARGAQKLVF
beta TRBV6-5 TRBJ1-6 CDR3: CASSYVGLGSPLHF
B6: MEL56 (TCR)
alpha TRAV12-3 TRAJ35 CDR3: CAMSVGFGNVLHC
beta TRBV27 TRBJ2-7 CDR3: CASSLGLAGNEQYF

Target: T1, BST2 peptide on HLA-A*02:01
Experiment: multimer staining

binding result | Binder
recognises | B1
no recognition | B2
recognises | B3
recognises | B4

Target: T2, IMP2 peptide on HLA-A*02:01
Experiment: multimer staining

binding result | Binder
recognises | B1
recognises | B2
recognises | B3
recognises | B4

Target: T2, IMP2 peptide on HLA-A*02:01
Experiment: stated without data

binding result | Binder
recognises | B5
recognises | B6
